# Patent publication US20140336130A1 (PHIGENIX, INC., priority 2011, published 2014)
# B1: DEFB1: human beta defensin-1 (SEQ ID NO:63), expressed in cells from Ponasterone A inducible pIND/DEFB1 construct (protein, listed as Homo sapiens)
# chain: MRTSYLLLFTLCLLLSEMASGGNFLTGLGHRSDHYNCVSSGGQCLYSACPIFTKIQGTCYRGKAKCCK
# What was measured:
# Assay type in all cases: cell-based, human
# LNCaP [1] = test: Pan-caspase detection (FAM-VAD-FMK, confocal), LNCaP; conditions: DEFB1 (hBD-1) induction 24 h
# Description: (§1) Detection of caspase activity in the prostate cancer cell lines was performed using APO LOGIX™ Carboxyfluorescin Caspase detection kit (Cell Technology, Mountain View, Calif.). Active caspases were detected through the use of a FAM-VAD-FMK inhibitor that irreversibly binds to active caspases. […] Next, 10 μl of a 30× working dilution of carboxyfluorescein labeled peptide fluoromethyl ketone (FAM-VAD-FMK) was added to 300 μl of media and added to each 35 mm dish. Cells were then incubated for 1 hour at 37° C. under 5% CO2. Then, the medium was aspirated and the cells were washed twice with 2 ml of a 1× Working dilution Wash Buffer. Cells were viewed under differential interference contrast (DIC) or under laser excitation at 488 nm. The fluorescent signal was analyzed using a confocal microscope (Zeiss LSM 5 Pascal) and a 63×DIC oil lens with a Vario 2 RGB Laser Scanning Module.
# (§2) Detection of caspase activity in the prostate cancer cell lines was performed s described in Example 1.
# (§3) Detection of caspase activity in the prostate cancer cell lines was performeds described in Example 1.
# (§4) Detection of caspase activity in the prostate cancer cell lines was performed as described in Example 1.
# DU145 [2] = test: Pan-caspase detection (FAM-VAD-FMK, confocal), DU145; conditions: DEFB1 (hBD-1) induction 24 h
# Description: as §1, §2, §3, §4
# LNCaP [3] = test: Membrane integrity AO/EtBr dual staining, LNCaP; conditions: hBD-1 induction 48 h
# Description: (§5) Acridine orange (AO)/ethidium bromide (EtBr) dual staining was performed to identify changes in cell membrane integrity, as well as apoptotic cells by staining the condensed chromatin. AO stains viable cells as well as early apoptotic cells, whereas EtBr stains late stage apoptotic cells that have lost membrane permeability. Briefly, cells were seeded into 2 chamber culture slides (BD Falcon, USA). […] In order to determine the effect of PAX2 inhibition on membrane integrity, separate culture slides containing DU145, PC3 and LNCaP were treated with PAX2 siRNA and incubated for 4 days. […] Fluorescence was viewed by a Zeiss LSM 5 Pascal Vario 2 Laser Scanning Confocal Microscope (Carl Zeiss Jena, Germany). […] Slides were analyzed under 40× magnification and digital images were stored as uncompressed TIFF files and exported into Photoshop CS software (Adobe Systems, San Jose, Calif.) for image processing and hard copy presentation. […]
# (§6) Fluorescence was viewed by a Zeiss LSM 5 Pascal Vario 2 Laser Scanning Confocal Microscope (Carl Zeiss). […] Slides were analyzed under 40× magnification and digital images were stored as uncompressed TIFF files and exported into Photoshop CS software (Adobe Systems) for image processing and hard copy presentation. […]
# PC3 [4] = test: Membrane integrity AO/EtBr dual staining, PC3
# Description: as §5, §6
# LNCaP [5] = test: Phase contrast microscopy of cell growth, LNCaP; conditions: DEFB1 induction 48 h
# Description: (§7) Cell morphology was analyzed by phase contrast microscopy. […] The following day plasmid-containing cells were induced for a period of 48 h with media containing 10 μM Ponasterone A, while control cells received fresh media. The cells were then viewed under an inverted Zeiss IM 35 microscope (Carl Zeiss, Germany). Phase contrast pictures of a field of cells were obtained using the SPOT Insight Mosaic 4.2 camera (Diagnostic Instruments, USA). Cells were examined by phase contrast microscopy under 32× magnification and digital images were stored as uncompressed TIFF files and exported into Photoshop CS software (Adobe Systems, San Jose, Calif.) for image processing and hard copy presentation.
# (§8) The effect of PAX2 knock-down on cell growth was analyzed by phase contrast microscopy as described in Example 1.
# (§9) The effect of PAX2 knockdown on cell number was analyzed by phase contrast microscopy as described in Example 1.
# DU145 [6] = test: Membrane integrity AO/EtBr dual staining, DU145
# Description: as §5, §6
# LNCaP [7] = test: MTT cell viability assay, LNCaP; conditions: DEFB1 (hBD-1) induced with 10 μM PonA, 24-72 h
# Description: Reactions were performed three times in triplicate.
# DU145, PC3 and LNCaP cells […] were transfected with 0.5 μg of the PAX2 siRNA pool or control siRNA pool using Codebreaker transfection reagent according to the manufacturer's protocol (Promega). Next, cell suspensions were diluted and seeded onto a 96-well plate at 1-5×10^3 cells per well and allowed to grow for 2-, 4- or 6 days. After culture, cell viability was determined by measuring the conversion of 3-[4,5-dimethylthiazol-2yl]-2,5 diphenyl tetrazolium bromide, MTT (Promega), to a colored formazan product. Absorbance was read at 540 nm on a scanning multiwell spectrophotometer.
# (§10) To examine the effects of hBD-1 on cell growth, metabolic 3-[4,5-dimethylthiazol-2yl]-2,5-diphenyl tetrazolium bromide (MTT) assay was performed. DU145, LNCaP, PC3 and PC3/AR+ cells co-transfected with pvgRXR plasmid and pIND/hBD-1 construct or control pvgRXR plasmid were seeded onto a 96-well plate at 1-5×10^3 cells per well. Twenty-four hours after seeding, fresh growth medium was added containing 10 μM Pon A daily to induce hBD-1 expression for 24, 48 and 72 h after which the MTT assay was performed according to the manufacturer's instructions (Promega). Reactions were performed three times in triplicate.
# MTT cytotoxicity assay was performed as described in Example 1.
# DU145 [8] = test: Flow cytometry Annexin V-FITC/PI, DU145
# Description: The remaining attached cells were harvested by trypsinization and combined with the detached cells and PBS. The cells were then pelleted at 4° C. (500×g) for 5 min, washed twice in PBS, and resuspended in 100 μl of 1× Annexin binding buffer ([…]) containing 5 μl of Annexin V-FITC and 5 μl of PI. The cells were incubated at RT for 15 min in the dark, then diluted with 400 μl of 1× Annexin binding buffer and analyzed by FACscan (Becton Dickinson, San Jose, Calif.). All reactions were performed three times.
# PC3 and DU145 cells transfected with the hBD-1 expression system were grown in 60-mm dishes and induced for 12, 24, and 48 h with 10 μM Pon A. The cells were harvested and analyzed by flow cytometry as described in Example 1.
# PC3 [9] = test: Phase contrast microscopy of cell growth, PC3; conditions: DEFB1 induction 48 h
# Description: as §7, §8, §9
# PC3 [10] = test: Flow cytometry Annexin V-FITC/PI, PC3
# Description: The remaining attached cells were harvested by trypsinization and combined with the detached cells and PBS. The cells were then pelleted at 4° C. (500×g) for 5 min, washed twice in PBS, and resuspended in 100 μl of 1× Annexin binding buffer (0.1 M Hepes/NaOH at pH 7.4, 1.4 M NaCl, 25 mM CaCl2) containing 5 μl of Annexin V-FITC and 5 μl of PI. The cells were incubated at RT for 15 min in the dark, then diluted with 400 μl of 1× Annexin binding buffer and analyzed by FACscan (Becton Dickinson, San Jose, Calif.). All reactions were performed three times.
# PC3/AR+ = test: MTT cell viability assay, PC3/AR+; conditions: PC3 with ectopic AR expression; hBD-1 induced
# Description: as §10
# PC3 [11] = test: Pan-caspase detection (FAM-VAD-FMK, confocal), PC3; conditions: DEFB1 (hBD-1) induction 24 h
# Description: as §1, §2, §3, §4
# DU145 [12] = test: Phase contrast microscopy of cell growth, DU145; conditions: DEFB1 induction 48 h
# Description: as §7, §8, §9
molecule,measurement,setting,value
B1,caspase activity (green FAM-VAD-FMK staining),LNCaP [1],no green staining
same,caspase activity (green FAM-VAD-FMK staining),DU145 [2],green staining
same,membrane integrity (AO/EtBr staining),LNCaP [3],no observable alterations to membrane integrity
same,membrane integrity (AO/EtBr staining),PC3 [4]; DEFB1 (hBD-1) induction 24 h,accumulation of EtBr in the cytoplasm
same,membrane integrity (AO/EtBr staining),PC3 [4]; DEFB1 (hBD-1) induction 48 h,possessed condensed nuclei and appeared yellow
same,cell proliferation,LNCaP [5],no effect on cell proliferation
same,membrane integrity (AO/EtBr staining),DU145 [6]; DEFB1 (hBD-1) induction 24 h,accumulation of EtBr in the cytoplasm
same,membrane integrity (AO/EtBr staining),DU145 [6]; DEFB1 (hBD-1) induction 48 h,possessed condensed nuclei and appeared yellow
same,effect on cell viability,LNCaP [7],no significant effect
same,"number of apoptotic cells (annexin V/PI, lower and upper right quadrants)",DU145 [8]; DEFB1 (hBD-1) induction 12 h,12%
same,"number of apoptotic cells (annexin V/PI, lower and upper right quadrants)",DU145 [8]; DEFB1 (hBD-1) induction 24 h,34%
same,"number of apoptotic cells (annexin V/PI, lower and upper right quadrants)",DU145 [8]; DEFB1 (hBD-1) induction 48 h,59%
same,cell number,PC3 [9],significant reduction in cell number
same,"number of apoptotic cells (annexin V/PI, lower and upper right quadrants)",PC3 [10]; DEFB1 (hBD-1) induction 12 h,10%
same,"number of apoptotic cells (annexin V/PI, lower and upper right quadrants)",PC3 [10]; DEFB1 (hBD-1) induction 24 h,20%
same,"hBD-1 cytotoxicity, PC3/AR+ compared with PC3",PC3/AR+,no difference
same,caspase activity (green FAM-VAD-FMK staining),PC3 [11],green staining
same,cell number,DU145 [12],significant reduction in cell number
